In series [1] the test system is Caco-2 Host Cells. Nature of the series: Host cell toxicity assay by LDH release (CYTOTOX 96). It counts as cell-based, human. The settings on record: control medium alone for 2 h, 0-5% non toxic, 5-10% mild toxicity. How it is done:
Host cell toxicity assay was performed by measuring the release of lactate dehydrogenase (LDH) in the medium using a CYTOTOX 96 Non-Radioactive Cytotoxicity Assay kit (Promega, Madison, Wis.). Toxicity was therefore classified as non toxic 0-5% LDH release and mild toxicity 5-10% LDH release (ref).
A general note: Release of lactate dehydrogenase indicates damage to the cell membrane.

For series [2], the system named is C. parvum sporozoites. Nature of the series: Effect of PLA2 on sporozoite infectivity for Caco-2 monolayers (immunofluorescence assay). It counts as cell-based, Cryptosporidium parvum. The procedure:
(§1) This experiment describes the effects of PLA2 on sporozoite infectivity. Briefly, sporozoites were incubated in an isotonic saline solution (37° C., 30 min) with a range of concentrations of PLA2 isolated from honey bee venom (Sigma-Aldrich Corp., St. Louis, Mo., 1.5 U/μg protein). Control sporozoites were identically incubated in buffer containing concentration-matched BSA but no PLA2. Sporozoites were then washed in medium and inoculated onto replicate Caco-2 human intestinal epithelial cell monolayers. 24 h later, infection was quantified in test and control monolayers by immunofluorescence assay as described herein and the mean percent reduction of infection calculated. […] Percent viability of Caco-2 cells following exposure to PLA2-treated sporozoites (86%) was similar to that of uninoculated control cells (91 %) at 24 hrs, as determined by trypan blue dye exclusion. […] Through fusion of PLA2 to a monoclonal antibody with a high affinity for sporozoites, such as 1E10 or 4H9, lethal concentrations of biocide are deliverable to the sporozoite surface with relatively low amounts of biocide being used.

Series [3] relates to Caco-2 cells. Nature of the series: Caco-2 cell viability by trypan blue dye exclusion. Conditions: 24 hrs, uninoculated control cells 91 %. It counts as cell-based, human. How it is done:
as §1

Turning to b-defensin 1 [βD1], the “% LDH release” value in series [1] (10 μg/ml) is 0.8 ± 1.0%.
For the substance bee-venom phospholipase A2 [PLA2], the “PLA2 concentration effective in neutralization” value in series [2] (preliminary data) was less than 0.02 units/ml. For the same substance, the “PLA2 concentration achieving highly significant reduction of sporozoite infectivity” value in series [2] (sporozoites incubated 37° C., 30 min, Caco-2 monolayers, 24 h, P<0.0005) amounted to 0.014 U/ml. In series [3], the “Percent viability of Caco-2 cells following exposure to PLA2-treated sporozoites” value worked out at 86%.
With cathelicidin, the results for the “% LDH release” value in series [1] (10 μg/ml) and in series [1] (100 μg/ml) were 1.6 ± 0.3 % and 5.6 ± 0.9 %, respectively.

These data come from patent US7566447B2, “Biocides” (Iogenetics, LLC, priority 2003, dated 2009).
